This data set can be described thus: label from the status in PepcDB records.
For the sequence “MARPQDPPRGFFPFGNPFKNLSSKNSVLSSKLLPLLNNFETNLASSISKLVPKEKSDILTVSWMKQAMESLCETHNGIKTLITDLELPVSDWEDKWVDVYLDISVKLLDLCNAFSSELTRLNQGHLLLQFALHNLEANSPQNLSKAQSSLDSWKQHIVSKNPRIENCRAILSSLVQTLNLPKVKNSAKGKVLMRALYGVKVKTLYISGVFAAAFSGSSQNLMYLTVSNELPWAQSFMEVQNTMNAEIKNIFLSDGLTVLKELEAVASGVKKLYPAIQQGSIDPISLQPLKDSVTELSNGIDLVSKEVDCFFKILLSGRDTLLENLRSMGASTLQATSPKKAAGKNYRGF”, the protein production entry is given as “failed”. As to “MARRNRGVTRRERPNLLITGTPGTGKSTTASALAEATNLRYICIGDLVKEKEFYHGWDNELECHFINEDSVIDELDDAMIEGGNIVDYHGCDFFPQRWFDRVVVLRTENSVLYDRLTNSKVLIVFSQPTKAGVIQEPSLVTTFNAKCIKSYSKKHMTVMMRKLSLNYKGEAMLAKTVFPRGLLVLRSFSSVASKTLLKVGDVLRETRVFSSEDIKAYAEVSHDWNPLHFDPESARKAGFENRLVHGMLVSSMFPRIISAHFPGAVYVSQSLHFRSPVYIGDEILGLVQAIALRETKNKYIVKFSTKCFKNHNELVVIDGEATAILPNLDMLQKSPSE”, the protein production result is “failed”.

As for “MARRPFSSQSLVLIVIAIAINMIGGQLISMLKLPIFLDSIGTLISAVLLGPFIGMLTGLLTNLLWGLLTDPIAAAFAPVAMVIGLVAGWLARAGWFRTLPKVIVSGVVITLAVTLVAVPLRTALFGGVTGSGADLFVAWMHSMGQNLVESVAITVIGANLVDKILTAIIVWVLLRQLPLRTTRHFPAMSAVR”, the protein production result was “failed”. The value for “MARTIENMAKPASDMPPYDKAAALRGLAGARRVALLMAPRLGDTLLMMNMARNLAAHGREVSIFGDYIHGLRDWFPGLDIRPSLSEEQAGQVLPGYDCAAQMHVGWPYALHAHQPNYFYYDAHVAITGRGFVKLFQIRDFCREQLGLAQAGADNGLRPPPQVQPHRSHPRRVALHPTSTGAQRCWAPRHFKELGLRLLHEGYEPNYIVAPHERAEWSWVLDHGLHLPQFPSLSEVAGFIHASGWFIGNESGIGHLASNVGVPTLSLTGRPTRTRAWRPAWSTSRIVYPALIPGGRWRDRLWREWLSPRRVMSAFHKLQADDRRQPVGVPWGKI” was “failed”; that for “MARVLVDFQPVGRRVEVDAGQTILSAIQQLGLSLGAGGLTAPCGGRGLCGRCRVRIASGEVGEVNPAERRFLTPAQLEKGYRLACQATVIGPVKVEIPPESMLGVQKLQVEGLDIAVTPEPPVKRYNLPLSKTTIENPLPLWQQVTGELEATYGLDRPGVDFGLAREWKPMATEGECVVTVRGPEVINIYTGRLAPPPVGLAVDLGTTKVAGFLINLETGATLAADGIMNPQITYGEDVMARLGYALEGEEEYRRIQEVEIEGLNRLAATLAAKAGVATTDIEEAVIVGNTAMHHLLLHLPVEQLARAPYVPALTTPVEIKTRNLGLNLSPGAFVYLQPVIAGFVGGDHVAMILGSRIDEARKVTLGLDIGTNTEIVLSYGGKMLSCSCASGPAFEGAHIAQGMRAVTGAIAAVRLSDDGRDVFWESIGGVPPLGICGSGILDAVAELYRTGILNASGRLDLNHPRVRRPAGGGPPEFLLVPAAETGIDGDLVVTQKDINEIQLAKAAIATGTLLLLEAAGLTVKDLEEVVVAGAFGTHLKLESAITIGMFPNLPLTAFRQVGNAAGTGARLALLSLTERKRGEAIARQVGYLELMTRPSFHEVYVKSLLLP” was “failed”. Under “MARVRFENKRVNMSKLSQFGFEPNQNGQYQFRILIMQGQFEMIIELNTDGSLNTTLTDTTTSEVYVLHLTSQAHGQFVGQVAQAYQDVLYNIEQHCYDNDVFQSTPERKLIAQVKAAYGDDLEFLWPKFPQNAVWRRSDTHKWYGALLTVTSDKLALPGATHVVTVLDLRARPEDLSMLIDGQHYLPGYHMNKKHWYSILLDDVVPLATIMDDVKVSYMLAKLEHHHHHH” stands “not failed”; under “MARYHIETYGCTSNRGESRDIERRLRDAGHHKVETAADADVAILNTCTVVEKTERNMLRRAKELADETADLIVTGCMALAQGEAFADADVDAQVLHWDDVPEAVTNGECPTTTPDAEPILDGVVGILPIARGCMSNCSYCITKQATGRVDSPPVEENVEKARALVHAGAKEIRITGQDTGVYGWDTGERKLPELLERIATEIEGEFRVRVGMANPGGVHGIREELAAVFAEHDEIYNFLHAPVQSGSDDVLADMRRQHEVSQYRDIVETFNDTLGEWTLSTDFIVGFPTEDDDDHEASMDLLRETRPEKINVTRFSKRPGTDAAELKGLGGQTKKDRSKAMTELKMDVVGEAHESMVGTRRDVLVVEEGTGDSVKCYDGAYRQVIVQNATDHGLEPGDFATVEVTSHQTVYAFAEPVDAAAVDDGPAETTAD”, “failed”.
